This is an account of results in the supplement of paper PMC9112550, “Optimization of the antimicrobial peptide Bac7 by deep mutational scanning” (BMC Biology, 2022).
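Also: peptides expressed intracellularly from a pBAD plasmid library in pooled LB shake-flask culture, induced with 0.3% L-arabinose, DNA abundance read by NGS, three biological replicates, DESeq2 with apeglm shrinkage.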

This data set deals with Escherichia coli TOP10. The data set is described as follows: shrunken log2 fold change of peptide-encoding DNA abundance (4.5 h post-induction vs induction); higher = less antimicrobial activity (less host growth inhibition). As to conditions: time post-induction: 4.5 h; library: site-saturation at positions 5, 18, 19, 20.
For the sequence RRIRGRPPRLPRPRPRPLRLPRP, the “shrunken log2 fold change” value was determined as 1.34.
For the sequence RRIRFRPPRLPRPRPRPITGPRP, the “shrunken log2 fold change” value was -0.107.
Then RRIRERPPRLPRPRPRPVIPPRP, with -0.23.
Then RRIRDRPPRLPRPRPRPLQDPRP, with 0.115; and RRIRSRPPRLPRPRPRPTWVPRP, with 0.0759; and RRIRKRPPRLPRPRPRPINEPRP, with -0.215.
Regarding RRIRHRPPRLPRPRPRPPCRPRP, the “shrunken log2 fold change” value is -0.0923.
For RRIRERPPRLPRPRPRPNPWPRP, the “shrunken log2 fold change” value was -0.0758.
For the sequence RRIRQRPPRLPRPRPRPDGTPRP, the “shrunken log2 fold change” value was determined as 0.103.
The result for RRIRARPPRLPRPRPRPLRDPRP reads 0.948; that for RRIRHRPPRLPRPRPRPGNSPRP, 0.0912; that for RRIRSRPPRLPRPRPRPSEWPRP, 0.0157.
Consider RRIRCRPPRLPRPRPRPKTLPRP, for which the “shrunken log2 fold change” value is -0.246.
Then RRIRVRPPRLPRPRPRPSCSPRP, with -0.338.
Then RRIRIRPPRLPRPRPRPQRGPRP, with 0.0568.
Turning to RRIRQRPPRLPRPRPRPAVEPRP, the “shrunken log2 fold change” value was 0.149.
Then RRIRTRPPRLPRPRPRPYPLPRP, with 0.0692.
The result for RRIRARPPRLPRPRPRPAQPPRP reads 0.723; that for RRIRFRPPRLPRPRPRPNLSPRP, -0.259; that for RRIRMRPPRLPRPRPRPLHLPRP, -0.254.
Then RRIRHRPPRLPRPRPRPWTTPRP, with 0.00489.
For RRIRQRPPRLPRPRPRPSANPRP, the “shrunken log2 fold change” value was 0.0611.
Then RRIRGRPPRLPRPRPRPTDSPRP, with 0.526.
Then RRIRYRPPRLPRPRPRPYKEPRP, with 0.043.
The result for RRIRGRPPRLPRPRPRPRRKPRP reads 0.742.
For the sequence RRIRRRPPRLPRPRPRPFKDPRP, the “shrunken log2 fold change” value was -0.11.
With RRIRFRPPRLPRPRPRPVVMPRP, the “shrunken log2 fold change” value came to 0.297.
The result for RRIRLRPPRLPRPRPRPQCSPRP reads -0.127; that for RRIRERPPRLPRPRPRPGLDPRP, -0.0204.
With RRIRGRPPRLPRPRPRPRATPRP, the “shrunken log2 fold change” value was 1.72.
Then RRIRYRPPRLPRPRPRPDCWPRP, with -0.105; and RRIRLRPPRLPRPRPRPEALPRP, with -0.00171.
Then RRIRFRPPRLPRPRPRPEAMPRP, with -0.000462.
Take RRIRTRPPRLPRPRPRPAFNPRP: the “shrunken log2 fold change” value was -0.121.
Then RRIRVRPPRLPRPRPRPDLYPRP, with -0.35.
Then RRIRMRPPRLPRPRPRPNHPPRP, with -0.0733.
Turning to RRIRDRPPRLPRPRPRPWWRPRP, the “shrunken log2 fold change” value was 0.116.
Then RRIRYRPPRLPRPRPRPQNHPRP, with -0.61; and RRIRDRPPRLPRPRPRPAACPRP, with 0.598; and RRIRWRPPRLPRPRPRPAIQPRP, with 0.0853.
Consider RRIRMRPPRLPRPRPRPIIIPRP, for which the “shrunken log2 fold change” value was -0.166.
The result for RRIRQRPPRLPRPRPRPDEEPRP reads -0.0445; that for RRIRDRPPRLPRPRPRPVKWPRP, 0.00911; that for RRIRPRPPRLPRPRPRPFRWPRP, -0.0528.
The result for RRIRNRPPRLPRPRPRPYHHPRP reads -0.207; that for RRIRNRPPRLPRPRPRPSHQPRP, -0.374.
Take RRIRTRPPRLPRPRPRPCSIPRP: the “shrunken log2 fold change” value is -0.472.
Then RRIRWRPPRLPRPRPRPVMPPRP, with 0.15; and RRIRERPPRLPRPRPRPKITPRP, with -0.514; and RRIRGRPPRLPRPRPRPFARPRP, with 0.484.
The result for RRIRPRPPRLPRPRPRPPNGPRP reads 0.593; that for RRIRERPPRLPRPRPRPMIRPRP, 0.0011; that for RRIRMRPPRLPRPRPRPGAVPRP, 0.873.
The result for RRIRSRPPRLPRPRPRPLFGPRP reads 0.157.
As to RRIRTRPPRLPRPRPRPTRIPRP, the “shrunken log2 fold change” value is -0.204.
Then RRIRLRPPRLPRPRPRPMCTPRP, with -0.0698; and RRIRDRPPRLPRPRPRPEEEPRP, with 0.00884.
Then RRIRKRPPRLPRPRPRPSTYPRP, with -0.0529; and RRIRHRPPRLPRPRPRPDMMPRP, with -0.21.
With RRIRRRPPRLPRPRPRPIQAPRP, the “shrunken log2 fold change” value is -0.0046.
The result for RRIRHRPPRLPRPRPRPHHIPRP reads -1.53.
The result for RRIRMRPPRLPRPRPRPVMMPRP reads 0.147.
The result for RRIRTRPPRLPRPRPRPDYNPRP reads -0.0768; that for RRIRDRPPRLPRPRPRPFNPPRP, -0.509.
Turning to RRIRFRPPRLPRPRPRPVQCPRP, the “shrunken log2 fold change” value amounted to 0.0456.
Take RRIRNRPPRLPRPRPRPRRRPRP: the “shrunken log2 fold change” value worked out at 0.558.
The result for RRIRSRPPRLPRPRPRPACKPRP reads -0.146.
In the case of RRIRVRPPRLPRPRPRPTHAPRP, the “shrunken log2 fold change” value was 0.285.
Then RRIRQRPPRLPRPRPRPPWTPRP, with 0.0238.
Regarding RRIRFRPPRLPRPRPRPYDVPRP, the “shrunken log2 fold change” value was -0.185.
The result for RRIRQRPPRLPRPRPRPCFKPRP reads -0.407; that for RRIRERPPRLPRPRPRPASDPRP, -0.105.
The result for RRIRPRPPRLPRPRPRPWWIPRP reads -0.243; that for RRIRIRPPRLPRPRPRPCQSPRP, -0.00131; that for RRIRGRPPRLPRPRPRPREWPRP, 0.843.
The result for RRIRARPPRLPRPRPRPWNLPRP reads -0.0204; that for RRIRTRPPRLPRPRPRPGTFPRP, -0.116.
Regarding RRIRNRPPRLPRPRPRPFHMPRP, the “shrunken log2 fold change” value is -0.458.
The result for RRIRVRPPRLPRPRPRPKDSPRP reads -0.327; that for RRIRTRPPRLPRPRPRPLTDPRP, -0.198.
The result for RRIRERPPRLPRPRPRPPVEPRP reads 0.268; that for RRIRTRPPRLPRPRPRPYKHPRP, -0.518; that for RRIRSRPPRLPRPRPRPDPSPRP, 0.0173.
With RRIRIRPPRLPRPRPRPAHHPRP, the “shrunken log2 fold change” value is -0.176.
As to RRIRTRPPRLPRPRPRPKYNPRP, the “shrunken log2 fold change” value is -0.81.
The result for RRIRSRPPRLPRPRPRPTEVPRP reads -0.125; that for RRIRTRPPRLPRPRPRPEREPRP, -0.00458.
Turning to RRIRGRPPRLPRPRPRPYPCPRP, the “shrunken log2 fold change” value is -0.0571.
The result for RRIRERPPRLPRPRPRPKRFPRP reads -0.0239; that for RRIRGRPPRLPRPRPRPADYPRP, 0.025.
As to RRIRDRPPRLPRPRPRPYRKPRP, the “shrunken log2 fold change” value was -0.0111.
The result for RRIRLRPPRLPRPRPRPRCTPRP reads 0.0989; that for RRIRDRPPRLPRPRPRPFKEPRP, 0.0108.
In the case of RRIRPRPPRLPRPRPRPMIVPRP, the “shrunken log2 fold change” value was -1.14.
The result for RRIRCRPPRLPRPRPRPNNNPRP reads -0.797; that for RRIRTRPPRLPRPRPRPHKNPRP, -0.415; that for RRIRARPPRLPRPRPRPCKCPRP, -0.0835.
The result for RRIRYRPPRLPRPRPRPPVIPRP reads -0.0623; that for RRIRCRPPRLPRPRPRPQRTPRP, 0.288.
The result for RRIRYRPPRLPRPRPRPAKSPRP reads -0.156.
Turning to RRIRGRPPRLPRPRPRPFNYPRP, the “shrunken log2 fold change” value is -0.419.
The result for RRIRCRPPRLPRPRPRPVHNPRP reads -0.415; that for RRIRMRPPRLPRPRPRPDAYPRP, 0.414; that for RRIRPRPPRLPRPRPRPFSTPRP, -0.317.
Then RRIRFRPPRLPRPRPRPCWPPRP, with 0.0203; and RRIRQRPPRLPRPRPRPDVKPRP, with -0.0135; and RRIRDRPPRLPRPRPRPLKWPRP, with 0.0491.
Then RRIRQRPPRLPRPRPRPCIQPRP, with -0.118.
In the case of RRIRMRPPRLPRPRPRPTSHPRP, the “shrunken log2 fold change” value is 0.0149.
The result for RRIRKRPPRLPRPRPRPYEAPRP reads -0.325; that for RRIRDRPPRLPRPRPRPWGNPRP, -0.0163.
RRIRLRPPRLPRPRPRPTKHPRP: the “shrunken log2 fold change” value was -0.14.
The result for RRIRNRPPRLPRPRPRPNNGPRP reads -0.0309; that for RRIRLRPPRLPRPRPRPADVPRP, -0.0469; that for RRIRHRPPRLPRPRPRPTAPPRP, 0.184.
On to RRIRMRPPRLPRPRPRPWNHPRP, for which the “shrunken log2 fold change” value is -0.0446.
As for RRIRYRPPRLPRPRPRPATIPRP, the “shrunken log2 fold change” value is -1.16.
Then RRIRIRPPRLPRPRPRPHWRPRP, with -0.101.
Consider RRIRHRPPRLPRPRPRPGMLPRP, for which the “shrunken log2 fold change” value was -0.0926.
On to RRIRTRPPRLPRPRPRPEWQPRP, for which the “shrunken log2 fold change” value stood at 0.495.
The result for RRIRTRPPRLPRPRPRPDCSPRP reads -0.239; that for RRIRNRPPRLPRPRPRPLHLPRP, -0.59; that for RRIRARPPRLPRPRPRPIIYPRP, -0.249.
Then RRIRQRPPRLPRPRPRPYMRPRP, with -0.0086; and RRIRFRPPRLPRPRPRPRMIPRP, with -0.517.
